Laboratory results: article PMC4169579 (2014)
Positions of bridges follow the written chain, without caps; N, C: chain ends. No end group written: not given here.

Target: Prostate-specific antigen (PSA or kallikrein-related peptidase-3, KLK3), major form of active PSA (isoform … (human, UniProt P07288 25-261))
Assay: SPR

Prostate-specific antigen (PSA or kallikrein-related peptidase-3, KLK3), major form of active PSA (isoform …, sequence (P07288 25-261): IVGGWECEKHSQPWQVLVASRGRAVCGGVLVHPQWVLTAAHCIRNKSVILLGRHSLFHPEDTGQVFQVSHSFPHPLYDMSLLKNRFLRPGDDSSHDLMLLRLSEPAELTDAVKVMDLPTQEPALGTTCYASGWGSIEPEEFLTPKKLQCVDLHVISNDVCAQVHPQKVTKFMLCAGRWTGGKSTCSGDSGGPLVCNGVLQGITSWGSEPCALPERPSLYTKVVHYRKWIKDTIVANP

- Kd: 56.1 µM
B1: 12-amino acid cyclic peptide B2 (without C-terminal amidation) (peptide)
peptide: CVFAHNYDYLVC-OH
modifications: disulfide 1-12; N-terminus assumed
SMILES: CC(C)C[C@@H]1NC(=O)[C@H](Cc2ccc(O)cc2)NC(=O)[C@H](CC(=O)O)NC(=O)[C@H](Cc2ccc(O)cc2)NC(=O)[C@H](CC(N)=O)NC(=O)[C@H](Cc2c[nH]cn2)NC(=O)[C@H](C)NC(=O)[C@H](Cc2ccccc2)NC(=O)[C@H](C(C)C)NC(=O)[C@@H](N)CSSC[C@@H](C(=O)O)NC(=O)[C@H](C(C)C)NC1=O
